Results on 15 molecules are retold here after patent US11906524B2, “Urea biosensors and uses thereof” (Duke University, priority 2015, dated 2024).

Changes are numbered by the printed parent chain. Names may count otherwise.

The nature of assay [1]: Urea titration of emission intensity spectra (Nanodrop3300) with ratiometric analysis, singly labeled conjugates. Format: binding. From the text: Determination of emission intensity spectra.
(§1) Ratiometric analysis of urea binding. […] 2
(§2) For a single urea-binding site, the fractional saturation is given by
(§3) [formula] where [L] is the ligand (urea) concentration and Kd the dissociation constant, ^trueKd for ytrue.
[formula] where ^appIλ2 and ^satIλ2 are the emission intensities of the monochromatic signal at wavelength λ2 of the ligand-free and ligand-bound protein, respectively.

Assay [2] can be described thus: Temperature- and urea-dependent fluorescence landscapes of fluorescent conjugates (Roche LightCycler). Format: binding. The arrangement: key: y, yes; n, no. The settings on record: fluorescent response to urea. Here is the method: We constructed 20 single cysteine mutants in csUBP7, exploring 7 endosteric, 12 peristeric, and 1 allosteric position (FIG. 9). At each position we attached the Prodan-derived fluorophores Acrylodan and Badan, which differ by one methylene group in their thiol-reactive linker. The fluorescent responses of these conjugates was determined initially as a function of urea concentration and temperature (FIG. 10). […] The ligand dependence of the emission spectra shapes was determined for these conjugates (Table 8).
Determination of temperature- and ligand-dependent fluorescence landscapes. […] Urea concentrations were varied from 0-4.8 M in 20 mM KCl, 20 mM MOPS (pH 7.4). […] Temperatures were advanced in 1K steps.
as §1, §2, §3
To obtain the temperature dependence of the binding reaction, the Kd values of all the individually determined isotherms were fit the Gibbs-Hemholtz equation (Layton and Hellinga, 2010, Biochemistry, 49, 10831-41):
[formula] where ΔGb^•(T) is the standard free energy of binding at 1 M ligand at temperature T,
[formula] Δ^refHb^• and Δ^refSb^• the molar enthalpy and entropy of binding, respectively, at the reference temperature, Tref, and ΔCp,b the heat capacity of the binding reaction.

Where [3] appears, read: mutation in the csUBP7 186C·Acrylodan conjugate.

Oregon Green yielded a monochromatic intensity change in assay [1] (fluorophore conjugated to csUBP7 186C variant with Q114A, increase on urea) of around 2 fold. Further, in assay [1] (fluorophore conjugated to csUBP7 186C, Q114A, fit of equation 1 to the monochromatic emission intensities, Nanodrop3300, read-out: trueKd (urea)), the Kd turned out to be 300 µM.

As for Texas Red, the “trueKd (urea)” value in assay [1] (fluorophore conjugated to csUBP7 186C, Q114A, fit of equation 1 to the monochromatic emission intensities, Nanodrop3300) is recorded as “n/b”.

B1: N211A: csUBP7 186C, 211A mutant (SEQ ID NO: 82), tested as Acrylodan conjugate (conjugate)
chain: MSSSESEKEKSEETIKVGILHSLSGTMSISEVSLKDAELMAIEEINNNGGVLGKKLEPIVEDGASDWPTFAEKAKKLLQKDKVAVIFGAWTSASRKAVLPVVEENNGLLFYPVQYEGLESSPNIFYMGAAPNQQIVPAVKWLFDNGKKRFYLLGSDYVFPRTANKIIKAYLKYLGGVVVGEEYTPCGHTDYSSVINKIKAAKPDVVFNTLAGDSNVAFFKQLKDAGIDANTLPVMSVSIAEEEIKGIGPEYLKGHLVTWNYFQSVDTPENKEFVEKYKKKYGEDRVTDDPIEAAYIGVYLWAKAVEKAGSTDVDKVREAAKGIEFNAPEGPVKIDGDNQHLYKTVRIGEILENGQIRELWKTNKPVKPDPYLKGYEWAQGLSEQGGSHHHHHH
modifications: Acrylodan conjugate; csUBP7_186C.28 (186C, 211A substitution mutant, signal peptide replaced with M and a GGSHHHHHH at C-terminus, and also comprising a C89A substitution)
Consider B1, for which the “effect of mutation on urea affinity” value in assay [1] (setting [3]) is “nearly abolishes binding”.

B2: V113T: csUBP7 186C, 113T mutant (SEQ ID NO: 70), tested as Acrylodan conjugate (conjugate)
chain: B1 chain with V113T, A211N
modifications: Acrylodan conjugate; csUBP7_186C.16 (186C, 113T substitution mutant, signal peptide replaced with M and a GGSHHHHHH at C-terminus, and also comprising a C89A substitution)
Turning to B2, in assay [1] (setting [3]), the “effect of mutation on urea affinity” value is “only a small effect”.

B3: csUBP7 A93C: csUBP7 93C cysteine mutant (SEQ ID NO: 31), tested as Acrylodan and Badan conjugates (conjugate)
chain: B1 chain with A93C, C186L, A211N
modifications: Acrylodan or Badan conjugate; csUBP7_93C (93C substitution mutant with signal peptide replaced with M and a GGSHHHHHH at C-terminus, and also comprising a C89A substitution)
As to B3, the Response result in assay [2] (Acrylodan conjugate) was “y”; in assay [2] (Badan conjugate), “n”.

B4: csUBP7 S65C: csUBP7 65C cysteine mutant (SEQ ID NO: 26), tested as Acrylodan and Badan conjugates (conjugate)
chain: B1 chain with S65C, C186L, A211N
modifications: Acrylodan or Badan conjugate; csUBP7_65C (65C substitution mutant with signal peptide replaced with M and a GGSHHHHHH at C-terminus, and also comprising a C89A substitution)
On to B4, for which the Response result is on record as “n” in assay [2] (Acrylodan conjugate) and “y” in assay [2] (Badan conjugate).

B5: csUBP7 Y115C: csUBP7 115C cysteine mutant (SEQ ID NO: 35), tested as Acrylodan and Badan conjugates (conjugate)
chain: B1 chain with Y115C, C186L, A211N
modifications: Acrylodan or Badan conjugate; csUBP7_115C (115C substitution mutant with signal peptide replaced with M and a GGSHHHHHH at C-terminus, and also comprising a C89A substitution)
B5: the Response entry in assay [2] (Acrylodan conjugate) and in assay [2] (Badan conjugate) was “n” in each case.

B6: S92A: csUBP7 186C, S92A mutant (SEQ ID NO: 65), tested as Acrylodan conjugate (conjugate)
chain: B1 chain with S92A, A211N
modifications: Acrylodan conjugate; csUBP7_186C.11 (186C, S92A substitution mutant, signal peptide replaced with M and a GGSHHHHHH at C-terminus, and also comprising a C89A substitution)
B6: in assay [1] (setting [3]), the “effect of mutation on urea affinity” value is recorded as “abolishes binding”.

B7: V113A: csUBP7 186C, 113A mutant (SEQ ID NO: 69), tested as Acrylodan conjugate (conjugate)
chain: B1 chain with V113A, A211N
modifications: Acrylodan conjugate; csUBP7_186C.15 (186C, 113A substitution mutant, signal peptide replaced with M and a GGSHHHHHH at C-terminus, and also comprising a C89A substitution)
For B7, in assay [1] (setting [3]), the “effect of mutation on urea affinity” value is on record as “weakens binding significantly”.

B8: Q114E: csUBP7 186C, 114E mutant (SEQ ID NO: 76), tested as Acrylodan conjugate (conjugate)
chain: B1 chain with Q114E, A211N
modifications: Acrylodan conjugate; csUBP7_186C.22 (186C, 114E substitution mutant, signal peptide replaced with M and a GGSHHHHHH at C-terminus, and also comprising a C89A substitution)
With B8, the “effect of mutation on urea affinity” value in assay [1] (setting [3]) is listed as “improves binding by an order of magnitude”.

B9: N211E: csUBP7 186C, 211E mutant (SEQ ID NO: 86), tested as Acrylodan conjugate (conjugate)
chain: B1 chain with A211E
modifications: Acrylodan conjugate; csUBP7_186C.32 (186C, 211E substitution mutant, signal peptide replaced with M and a GGSHHHHHH at C-terminus, and also comprising a C89A substitution)
B9: in assay [1] (setting [3]), the “effect of mutation on urea affinity” value is “weakens affinity”.

B10: csUBP7 Q114C: csUBP7 114C cysteine mutant (SEQ ID NO: 34), tested as Acrylodan and Badan conjugates (conjugate)
chain: B1 chain with Q114C, C186L, A211N
modifications: Acrylodan or Badan conjugate; csUBP7_114C (114C substitution mutant with signal peptide replaced with M and a GGSHHHHHH at C-terminus, and also comprising a C89A substitution)
On to B10, for which the Response entry in assay [2] (Acrylodan conjugate) and in assay [2] (Badan conjugate) was “n” throughout.

B11: csUBP7 S92C: csUBP7 92C cysteine mutant (SEQ ID NO: 30), tested as Acrylodan and Badan conjugates (conjugate)
chain: B1 chain with S92C, C186L, A211N
modifications: Acrylodan or Badan conjugate; csUBP7_92C (92C substitution mutant with signal peptide replaced with M and a GGSHHHHHH at C-terminus, and also comprising a C89A substitution)
For B11, the Response entry in assay [2] (Acrylodan conjugate) and in assay [2] (Badan conjugate) was “n” in each case.

B12: csUBP7 Y111C: csUBP7 111C cysteine mutant (SEQ ID NO: 33), tested as Acrylodan and Badan conjugates (conjugate)
chain: B1 chain with Y111C, C186L, A211N
modifications: Acrylodan or Badan conjugate; csUBP7_111C (111C substitution mutant with signal peptide replaced with M and a GGSHHHHHH at C-terminus, and also comprising a C89A substitution)
B12: the Response entry in assay [2] (Acrylodan conjugate) and in assay [2] (Badan conjugate) was “n” each time.

B13: V113Q: csUBP7 186C, 113Q mutant (SEQ ID NO: 72), tested as Acrylodan conjugate (conjugate)
chain: B1 chain with V113Q, A211N
modifications: Acrylodan conjugate; csUBP7_186C.18 (186C, 113Q substitution mutant, signal peptide replaced with M and a GGSHHHHHH at C-terminus, and also comprising a C89A substitution)
B13: in assay [1] (setting [3]), the “fold stronger affinity than either V113N or V113H” value is reported as 10 fold.
